Measured values reported in US20250035612A1 (NEURIMMUNE, published 2025).
Ends that are not written are not given here. * marks the point of attachment. Biotin = O=C1N[C@H]2[C@H](CS[C@H]2CCCCC(=O)*)N1; Ahx = NCCCCCC(=O)O

How the values were obtained:
[1] = target: T1, cyclic peptide TTR34-54cyc (cyclized via disulfide bridge between two cysteine residues within the poly-glycine stretch); assay: cell-based or functional assay
[2] = target: fluorescently labeled misfolded TTR aggregates of the monomeric F87M/L110M-TTR mutant (mis.TTR-488) (UniProt P02766 21-147); assay: cell-based or functional assay
[3] = target: T1, cyclic peptide TTR34-54cyc; assay: cell-based or functional assay; remark: listed apart in the source
[4] = target: T1, cyclic peptide TTR34-54cyc; assay: ELISA, coated peptide at 10 µg/ml, reference mis.WT-TTR
Method: (§1) In particular, 96-well microplates were coated for 1 hour at 37° C. with TTR34-54cyc, TTR40-49, Biotin. TTR40-449, and mis-WT-TTR (FLISA-1) and with TTR34-54cyc, Biotin. TTR34-54cyc, TTR40-49, Biotin. TTR40-449, and mis-WT-TTR (ELISA-2), respectively, wherein each target antigen has been diluted to a concentration of 10 μg/ml in PBS buffer pH 7.4. Non-specific binding sites were blocked for 1 hour at room temperature (RT) with a blocking buffer containing 2% bovine serum albumin (BSA) and 0.1% tween-20 in PBS buffer. […] Binding was determined using an anti-human IgG antibody conjugated with horseradish peroxidase (HRP), followed by measurement of HRP activity in a standard colorimetric assay (ThermoFisher Scientific Inc., Waltham, Massachusetts, USA). Data were analyzed with the Prism software from GraphPad. ECso values were estimated using non-linear regression of individual data points using log (agonist) versus response model with variable slope. Data fitting was performed with the least square regression method.

Biotin.TTR34-54cyc [5] = target: T2, Biotin.TTR34-54cyc (N-terminal Biotin-(Ahx): amino hexanoic acid spacer between the N-terminus and the biotin residue; cyclized via disulfide bridge between the two cysteine residues); assay: as above
T2 construct: Biotinylated form of TTR34-54cyc; also called biotinylated TTR34-54cyc
T2 sequence (peptide, as listed by the source): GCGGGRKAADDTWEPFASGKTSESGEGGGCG
Method: as §1

[6] = target: T1, cyclic peptide TTR34-54cyc; assay: ELISA-1, coated TTR34-54cyc at 10 µg/ml, anti-human IgG-HRP detection
Method: as §1

[7] = target: T1, cyclic peptide TTR34-54cyc; assay: ELISA-2, coated TTR34-54cyc at 10 µg/ml, anti-human IgG-HRP detection
Method: as §1

TTR peptide TTR40-49 = target: T3, TTR peptide TTR40-49; assay: ELISA-1 and ELISA-2, peptide coated at 10 µg/ml, anti-human IgG-HRP detection
T3 peptide: H-TWEPFASGKT-OH
Method: as §1

Biotin.TTR40-49 = target: T4, Biotin.TTR40-49; assay: as above
T4 construct: also called Biotin; TTR40-449; biotinylated TTR peptide TTR40-49
T4 peptide: {Biotin-Ahx}-TWEPFASGKT
Method: as §1

Biotin.TTR34-54cyc [8] = target: T2, Biotin.TTR34-54cyc; assay: ELISA (ELISA-2), plate coated with Biotin.TTR34-54cyc at 10 µg/ml, antibody titrated
Method: as §1

T1 sequence (peptide, as listed by the source): as above

B1: anti-TTR antibody NI-301.37F1 (antibody, V domains shown)
VH: QVQLQESGPGLVKPSETLSLTCSVSGGSIISRSSYWGWIRQPPGKGLEWIGGIYHSGNTYDNPSLKSRLTMSVDTSKNQFSLNLRSVTAADTAVYYCARIVPGGDAFDIWGQGTMVTVSS
VL: DIQMTQSPSSLSASVGDRVTIACRASQSVGTYLNWYQQKRGKAPKLLIFAASSLQSGVPSRFSGSGSGTDFTLTISSLQPEDFATYYCQQSYSSPPTFGQGTKVEIK
notes: detected with anti-human IgG; also called 37F1_3
- EC50 of the FcγR1 ADCP reporter assay, first experiment (FIG. 11); plate coated with 3 µg/mL TTR34-54cyc, NI-301.37F1 RS dilutions 500-0.4 ng/ml [1]: 0.0198 µg/mL
- EC50 of the mis.TTR-488 phagocytosis dose-response in THP1 cells, 0.7x_NI-301.37F1_3 (nominal concentration; sample at 0.7x of the reference) [2]: 1.5 nM
- EC50 of the mis.TTR-488 phagocytosis dose-response in THP1 cells, 1x_NI-301.37F1_3 [2]: 1.2 nM
- EC50 of the mis.TTR-488 phagocytosis dose-response in THP1 cells, NI-301.37F1_W1 GMP DS [2]: 0.54 nM
- EC50 of the mis.TTR-488 phagocytosis dose-response in THP1 cells, NI-301.37F1_W1 non-GMP DP [2]: 0.92 nM
- EC50 (ng/mL) of the FcγR1 ADCP reporter assay, plate coated with TTR34-54cyc; reference sample (RS) 100%, run with the 50% test sample [3]: 19.8 ng/mL
- EC50 (ng/mL) of the FcγR1 ADCP reporter assay, plate coated with TTR34-54cyc; reference sample (RS) 100%, run with the 70% test sample [3]: 19.8 ng/mL
- EC50 (ng/mL) of the FcγR1 ADCP reporter assay, plate coated with TTR34-54cyc; reference sample (RS) 100%, run with the 130% test sample [3]: 17.6 ng/mL
- EC50 (ng/mL) of the FcγR1 ADCP reporter assay, plate coated with TTR34-54cyc; reference sample (RS) 100%, run with the 150% test sample [3]: 19.3 ng/mL
- EC50 (ng/mL) of the FcγR1 ADCP reporter assay, plate coated with TTR34-54cyc; test sample 50% (nominal concentration) [3]: 39 ng/mL
- EC50 (ng/mL) of the FcγR1 ADCP reporter assay, plate coated with TTR34-54cyc; test sample 70% (nominal concentration) [3]: 30.4 ng/mL
- EC50 (ng/mL) of the FcγR1 ADCP reporter assay, plate coated with TTR34-54cyc; test sample 130% (nominal concentration) [3]: 13.6 ng/mL
- EC50 (ng/mL) of the FcγR1 ADCP reporter assay, plate coated with TTR34-54cyc; test sample 150% (nominal concentration) [3]: 13.5 ng/mL
- fold stronger binding than to mis. WT-TTR [4]: ~10 fold
- fold stronger binding than to mis. WT-TTR (Biotin.TTR34-54cyc [5]): ~10 fold
- EC50 [6]: 0.027 nM
- EC50 [7]: 0.66 nM
- binding result (TTR peptide TTR40-49): no binding
- binding result (Biotin.TTR40-49): no binding
- EC50 (read off the curve) (Biotin.TTR34-54cyc [8]): ~0.6 nM
